# Test results published in patent US20070238141.
# Biological target: GST-poly (Glu,Tyr) fused protein
# Sequence (chain, as listed by the source): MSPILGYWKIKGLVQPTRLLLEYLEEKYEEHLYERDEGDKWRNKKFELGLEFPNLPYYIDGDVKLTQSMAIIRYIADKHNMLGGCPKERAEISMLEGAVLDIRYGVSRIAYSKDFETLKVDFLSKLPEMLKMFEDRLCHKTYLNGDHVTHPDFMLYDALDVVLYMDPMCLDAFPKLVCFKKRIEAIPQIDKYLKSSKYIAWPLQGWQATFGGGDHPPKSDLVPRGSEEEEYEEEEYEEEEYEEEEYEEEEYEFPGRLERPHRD
row,Protein,"band of phosphorylated GST-poly (Glu,Tyr) fused protein in Western blotting with anti-phosphotyrosine antibody"
1,"ErbB4 Kinase (intracellular domain, Cell Signaling Technology) (protein) RRKSIKKKRALRRFLETELVEPLTPSGTAPNQAQLRILKETELKRVKVLGSGAFGTVYKGIWVPEGETVKIPVAIKILNETTGPKANVEFMDEALIMASMDHPHLVRLLGVCLSPTIQLVTQLMPHGCLLEYVHEHKDNIGSQLLLNWCVQIAKGMMYLEERRLVHRDLAARNVLVKSPNHVKITDFGLARLLEGDEKEYNADGGKMPIKWMALECIHYRKFTHQSDVWSYGVTIWELMTFGGKPYDGIPTREIPDLLEKGERLPQPPICTIDVYMVMVKCWMIDADSRPKFKELAAEFSRMARDPQRYLVIQGDDRMKLPSPNDSKFFQNLLDEEDLEDMMDAEEYLVPQAFNIPPPIYTSRARIDSNRSEIGHSPPPAYTPMSGNQFVYRDGGFAAEQGVSVPYRAPTSTIPEAPVAQGATAEIFDDSCCNGTLRKPVAPHVQEDSSTQRYSADPTVFAPERSPRGELDEEGYMTPMRDKPKQEYLNPVEENPFVSRRKNGDLQALDNPEYHNASNGPPKAEDEYVNEPLYLNTFANTLGKAEYLKNNILSMPEKAKKAFDNPDYWNHSLPPRSTLQHPDYLQEYSTKYFYKQNGRIRPIVAENPEYLSEFSLKPGTVLPPPPYRHRNTVV","In “+” of “i” to “vii”, a single band was seen at positions where a phosphorylated GST-poly (Glu,Tyr) fused protein appears"
2,"PDGF Receptor β Kinase (intracellular domain, Cell Signaling Technology) (protein) RYEIRWKVIESVSSDGHEYIYVDPMQLPYDSTWELPRDQLVLGRTLGSGAFGQVVEATAHGLSHSQATMKVAVKMLKSTARSSEKQALMSELKIMSHLGPHLNVVNLLGACTKGGPIYIITEYCRYGDLVDYLHRNKHTFLQHHSDKRRPPSAELYSNALPVGLPLPSHVSLTGESDGGYMDMSKDESVDYVPMLDMKGDVKYADIESSNYMAPYDNYVPSAPERTCRATLINESPVLSYMDLVGFSYQVANGMEFLASKNCVHRDLAARNVLICEGKLVKICDFGLARDIMRDSNYISKGSTFLPLKWMAPESIFNSLYTTLSDVWSFGILLWEIFTLGGTPYPELPMNEQFYNAIKRGYRMAQPAHASDEIYEIMQKCWEEKFEIRPPFSQLVLLLERLLGEGYKKKYQQVDEEFLRSDHPAILRSQARLPGFHGLRSPLDTSSVLYTAVQPNEGDNDYIIPLPDPKPEVADEGPLEGSPSLASSTLNEVNTSSTISCDSPLEPQDEPEPEPQLELQVEPEPELEQLPDSGCPAPRAEAEDSFL","In “+” of “i” to “vii”, a single band was seen at positions where a phosphorylated GST-poly (Glu,Tyr) fused protein appears"
3,"VEGF Receptor 1 Kinase (intracellular domain, Cell Signaling Technology) (protein) RKMKRSSSEIKTDYLSIIMDPDEVPLDEQCERLPYDASKWEFARERLKLGKSLGRGAFGKVVQASAFGIKKSPTCRTVAVKMLKEGATASEYKALMTELKILTHIGHHLNVVNLLGACTKQGGPLMVIVEYCKYGNLSNYLKSKRDLFFLNKDAALHMEPKKEKMEPGLEQGKKPRLDSVTSSESFASSGFQEDKSLSDVEEEEDSDGFYKEPITMEDLISYSFQVARGMEFLSSRKCIHRDLAARNILLSENNVVKICDFGLARDIYKNPDYVRKGDTRLPLKWMAPESIFDKIYSTKSDVWSYGVLLWEIFSLGGSPYPGVQMDEDFCSRLREGMRMRAPEYSTPEIYQIMLDCWHRDPKERPRFAELVEKLGDLLQANVQQDGKDYIPINAILTGNSGFTYSTPAFSEDFFKESISAPKFNSGSSDDVRYVNAFKFMSLERIKTFEELLPNATSMFDDYQGDSSTLLASPMLKRFTWTDSKPKASLKIDLRVTSKSKESGLSDVSRPSFCHSSCGHVSEGKRRFTYDHAELERKIACCSPPPDYNSVVLYSTPPI","In “+” of “i” to “vii”, a single band was seen at positions where a phosphorylated GST-poly (Glu,Tyr) fused protein appears"
4,"IGF-1 Receptor Kinase (intracellular domain, Cell Signaling Technology) (protein) RKRNNSRLGNGVLYASVNPEYFSAADVYVPDEWEVAREKITMSRELGQGSFGMVYEGVAKGVVKDEPETRVAIKTVNEAASMRERIEFLNEASVMKEFNCHHVVRLLGVVSQGQPTLVIMELMTRGDLKSYLRSLRPEMENNPVLAPPSLSKMIQMAGEIADGMAYLNANKFVHRDLAARNCMVAEDFTVKIGDFGMTRDIYETDYYRKGGKGLLPVRWMSPESLKDGVFTTYSDVWSFGVVLWEIATLAEQPYQGLSNEQVLRFVMEGGLLDKPDNCPDMLFELMRMCWQYNPKMRPSFLEIISSIKEEMEPGFREVSFYYSEENKLPEPEELDLEPENMESVPLDPSASSSSLPLPDRHSGHKAENGPGPGVLVLRASFDERQPYAHMNGGRKNERALPLPQSSTC","In “+” of “i” to “vii”, a single band was seen at positions where a phosphorylated GST-poly (Glu,Tyr) fused protein appears"
